The values below come from patent publication US7223398.

What is called IC50 is the concentration that inhibits the measured activity by half. A low value points to greater potency in that assay.

The target of assay [1] is IgE on basophils of ragweed allergic patients. The assay can be described thus: cell-based or functional assay.
Assay [2] deals with Amb a 1 specific IgE (in serum). The assay can be described thus: competition ELISA: soluble competitor pre-incubated with serum, IgE binding to plate-coated Amb a 1. For orientation: In an ELISA, binding on a coated surface is turned into a signal by an enzyme label.
The target is the same in assay [3]. The assay can be described thus: competition ELISA, ratio against soluble Amb a 1 as reference.
For assay [4] the target is unchanged. The assay can be described thus: competition ELISA: soluble competitor pre-incubated with serum, IgE binding to plate-coated Amb a 1; two lots gave the same value.

B1: ragweed allergen Amb a 1 (protein, UniProt P27759 26-396, looked up)
chain: AEDLQEILPVNETRRLTTSGAYNIIDGCWRGKADWAENRKALADCAQGFGKGTVGGKDGDIYTVTSELDDDVANPKEGTLRFGAAQNRPLWIIFERDMVIRLDKEMVVNSDKTIDGRGAKVEIINAGFTLNGVKNVIIHNINMHDVKVNPGGLIKSNDGPAAPRAGSDGDAISISGSSQIWIDHCSLSKSVDGLVDAKLGTTRLTVSNSLFTQHQFVLLFGAGDENIEDRGMLATVAFNTFTDNVDQRMPRCRHGFFQVVNNNYDKWGSYAIGGSASPTILSQGNRFCAPDERSKKNVLGRHGEAAAESMKWNWRTNKDVLENGAIFVASGVDPVLTPEQSAGMIPAEPGESALSLTSSAGVLSCQPGAPC
With B1, in assay [1], the HR40 (concentration required to induce 40% histamine release), patient four stood at 0.0003 µg/mL; the HR40 (concentration required to induce 40% histamine release), patient one was 0.0002 µg/mL; the HR40 (concentration required to induce 40% histamine release), patient three stood at 0.0003 µg/mL; the HR40 (concentration required to induce 40% histamine release), patient two was 0.0002 µg/mL. This molecule showed an HR40, mean of four patients in assay [1] of 0.0003 µg/mL. Besides, the 50% inhibitory concentration (IC50) in assay [2] was 0.04 µg/mL.

B2: AIC-H (covalent conjugate of Amb a 1 and ISS-containing polynucleotide SEQ ID NO:1, high extent of conjugation) (protein, ragweed, UniProt P27759 26-396, looked up)
chain: AEDLQEILPVNETRRLTTSGAYNIIDGCWRGKADWAENRKALADCAQGFGKGTVGGKDGDIYTVTSELDDDVANPKEGTLRFGAAQNRPLWIIFERDMVIRLDKEMVVNSDKTIDGRGAKVEIINAGFTLNGVKNVIIHNINMHDVKVNPGGLIKSNDGPAAPRAGSDGDAISISGSSQIWIDHCSLSKSVDGLVDAKLGTTRLTVSNSLFTQHQFVLLFGAGDENIEDRGMLATVAFNTFTDNVDQRMPRCRHGFFQVVNNNYDKWGSYAIGGSASPTILSQGNRFCAPDERSKKNVLGRHGEAAAESMKWNWRTNKDVLENGAIFVASGVDPVLTPEQSAGMIPAEPGESALSLTSSAGVLSCQPGAPC
modifications: average of >5.5 oligonucleotides (5' thio ISS oligonucleotide, SEQ ID NO:1) per Amb a 1 molecule, linked through the heterobifunctional linker sSMCC; Amb a 1 blocked with N-ethyl maleimide before activation
Regarding B2, the ratio of AIC-H to Amb a 1 for 50% inhibition in assay [3] was 4.75. This molecule registered an IC50 in assay [4] of 0.19 µg/mL. Further, in assay [1], the HR40 (concentration required to induce 40% histamine release), patient four was above 1 µg/mL; the HR40 (concentration required to induce 40% histamine release), patient one stood at 0.5 µg/mL; the HR40 (concentration required to induce 40% histamine release), patient three is above 0.1 µg/mL; the HR40 (concentration required to induce 40% histamine release), patient two was above 0.1 µg/mL. In assay [1], the HR40, mean of four patients was above 0.425 µg/mL and the Ratio AIC:Amb a 1 of HR40 was above 1420 fold.

B3: AIC-M (covalent conjugate of Amb a 1 and ISS-containing polynucleotide SEQ ID NO:1, medium extent of conjugation) (protein, ragweed, UniProt P27759 26-396, looked up)
chain: AEDLQEILPVNETRRLTTSGAYNIIDGCWRGKADWAENRKALADCAQGFGKGTVGGKDGDIYTVTSELDDDVANPKEGTLRFGAAQNRPLWIIFERDMVIRLDKEMVVNSDKTIDGRGAKVEIINAGFTLNGVKNVIIHNINMHDVKVNPGGLIKSNDGPAAPRAGSDGDAISISGSSQIWIDHCSLSKSVDGLVDAKLGTTRLTVSNSLFTQHQFVLLFGAGDENIEDRGMLATVAFNTFTDNVDQRMPRCRHGFFQVVNNNYDKWGSYAIGGSASPTILSQGNRFCAPDERSKKNVLGRHGEAAAESMKWNWRTNKDVLENGAIFVASGVDPVLTPEQSAGMIPAEPGESALSLTSSAGVLSCQPGAPC
modifications: average of 3.5 to 4.5 oligonucleotides (5' thio ISS oligonucleotide, SEQ ID NO:1) per Amb a 1 molecule, linked through the heterobifunctional linker sSMCC; Amb a 1 blocked with N-ethyl maleimide before activation
In the case of B3, the ratio of AIC-M to Amb a 1 for 50% inhibition in assay [3] was determined as 3. Also, in assay [1], the HR40 (concentration required to induce 40% histamine release), patient four was determined as 0.07 µg/mL; the HR40 (concentration required to induce 40% histamine release), patient one is 0.03 µg/mL; the HR40 (concentration required to induce 40% histamine release), patient three stood at 0.03 µg/mL; the HR40 (concentration required to induce 40% histamine release), patient two amounted to 0.028 µg/mL. Moreover, in assay [1], the HR40, mean of four patients turned out to be 0.0395 µg/mL and the Ratio AIC:Amb a 1 of HR40 was 132 fold. The molecule further came in with an IC50 in assay [2] of 0.12 µg/mL.

B4: AIC-L (covalent conjugate of Amb a 1 and ISS-containing polynucleotide SEQ ID NO:1, low extent of conjugation) (protein, ragweed, UniProt P27759 26-396, looked up)
chain: AEDLQEILPVNETRRLTTSGAYNIIDGCWRGKADWAENRKALADCAQGFGKGTVGGKDGDIYTVTSELDDDVANPKEGTLRFGAAQNRPLWIIFERDMVIRLDKEMVVNSDKTIDGRGAKVEIINAGFTLNGVKNVIIHNINMHDVKVNPGGLIKSNDGPAAPRAGSDGDAISISGSSQIWIDHCSLSKSVDGLVDAKLGTTRLTVSNSLFTQHQFVLLFGAGDENIEDRGMLATVAFNTFTDNVDQRMPRCRHGFFQVVNNNYDKWGSYAIGGSASPTILSQGNRFCAPDERSKKNVLGRHGEAAAESMKWNWRTNKDVLENGAIFVASGVDPVLTPEQSAGMIPAEPGESALSLTSSAGVLSCQPGAPC
modifications: average of 2-3 oligonucleotides (5' thio ISS oligonucleotide, SEQ ID NO:1) per Amb a 1 molecule, linked through the heterobifunctional linker sSMCC; Amb a 1 blocked with N-ethyl maleimide before activation
In assay [1], B4 returned an HR40 (concentration required to induce 40% histamine release), patient four of 0.026 µg/mL; an HR40 (concentration required to induce 40% histamine release), patient one of 0.02 µg/mL; an HR40 (concentration required to induce 40% histamine release), patient three of 0.01 µg/mL; an HR40 (concentration required to induce 40% histamine release), patient two of 0.018 µg/mL. In assay [1], the HR40, mean of four patients is 0.0185 µg/mL and the Ratio AIC:Amb a 1 of HR40 worked out at 62 fold.
